T1: H-RHAK-OH
T1 chain: RHAK

T2: H-RAHAK(DNP)-OH
T2 chain: RAHAK


Tests used:
H-RHAK-OH = target: T1, H-RHAK-OH
[1] = test system: Bz PGGXaaXaaXaaHAG-OH / H-XaaXaaXaaAK(DNP)-OH (recognition sequences YRRH, YMKH, RMKH); experiment: Time course of transamidation by A2C8_H39Y/H59Y/E60K/K189D and wild-type trypsin (FIG. 5); type: biochemical; settings: recognition sequences YRRH, YMKH and RMKH; 10 μM variant or 2.5 nM anionic rat trypsin II
Procedure: FIG. 5: Time course of the product formation for a transamidation reaction catalyzed by the variant A2C8_H39Y/H59Y/E60K/K189D as well as the wild-type Trypsin in correlation to various peptide substrates. Reaction conditions: 100 μM acyl donor (Bz PGGXaaXaaXaaHAG-OH), 200 μM acyl acceptor (H-XaaXaaXaaAK(DNP)-OH), 10 μM trypsin variant A2C8_H39Y/H59Y/E60K/K189D or 2.5 nM anionic rat trypsin II, 100 mM HEPES/NaOH pH 7.8, 0.1 mM ZnCl2, 100 mM NaCl, 10 mM CaCl2, T=30° C. UPLC analysis: Waters Acquity Ultra Performance LC, C18-column, gradient 5-60% acetonitrile, 5 min, detection at 360 nm.
The three substrates with the highest apparent turnover rate for the aminolysis reaction were then used for investigating the synthesis behavior of variant A2C8_H39Y/H59Y/E60K/K189D. In FIG. 5 the time course of product formation for a transamidation reaction catalyzed by variant A2C8_H39Y/H59Y/E60K/K189D with various peptide substrates is illustrated.

[2] = test system: Bz-AAYRHAAG-OH (acyl donor) / H-RHAK-OH (acyl acceptor); experiment: Model transamidation reaction at low substrate concentration, Trypsiligase I, 2G10, 1C11, hybrid (Example 2); type: biochemical; settings: for product yield (%): 15 μM Bz-AAYRHAAG-OH, 30 μM H-RHAK-OH, 0.5-2.1 μM trypsin variant, 0.1 mM ZnCl2, pH 7.8, 30° C.; for kcat, AL^app (mkat/mol) / kcat, AL^app/kcat, HL^app / kcat, HL^app (mkat/mol): 15 μM acyl donor, 30 μM acyl acceptor, 0.1 mM ZnCl2
Procedure: FIG. 1: Time course of product formation for a transamidation reaction catalyzed by Trypsiligase I as well as the improved variants 2G10, 1C11 and the hybrid variant. Reaction conditions: 15 μM Bz-[…]-OH (acyl donor), 30 μM H-RHAK-OH (acyl acceptor), 0.5-2.1 μM trypsin variant, 100 mM HEPES/NaOH pH 7.8, 0.1 mM ZnCl2, 100 mM NaCl, 10 mM CaCl2, T=30° C. UPLC analysis: Waters Acquity Ultra Performance LC, C18-column, gradient 5-40% acetonitrile, 4 min, detection at 254 nm.
The measurements of the product yield and the apparent tumover rates for aminolysis (kcat,AL^app) and hydrolysis (kcat,HL^app) were performed by a model transamidation reaction with the following conditions: 15 μM Bz-[…]-OH (acyl donor), 30 μM H-RHAK-OH (acyl acceptor), 0.5-2.1 μM trypsin variant, 100 mM HEPES/NaOH pH 7.8, 0.1 mM ZnCl2, 100 mM NaCl, 10 mM CaCl2, T=30° C.

[3] = test system: Bz-AAYRHAAG-OH (acyl donor) / H-RHAK-OH (acyl acceptor); experiment: Model transamidation reaction, Trypsiligase I and improved variants (Example 1); type: biochemical; settings: for kcat, HL^app (mkat/mol) / kcat,AL^app, apparent turnover rate for aminolysis (head is formula image MATH:00001) / product yield (%): 250 μM Bz-AAYRHAAG-OH, 500 μM H-RHAK-OH, 0.1 mM ZnCl2, pH 7.8, 30° C.; for product yield (%): 5-10 μM trypsin variant; for kcat, AL^app/kcat, HL^app: 250 μM acyl donor, 500 μM acyl acceptor, 0.1 mM ZnCl2; for Km: constant acyl donor concentration, varying acyl acceptor concentrations
Procedure: Peptide and reaction analytics were performed using a Waters ACQUITY UPLC System equipped with an RP-C18 column (ACQUITY UPLC BEH 130, C18, 1.7 μm, 2.1×100 mm) at flow rates of 0.5 ml/min. The used mobile phases are: water with 0.05% TFA (A) and acetonitrile with 0.05% TFA (B), respectively. For analysis two methods were applied: Method I: linear gradient of 5-40% B in 5 min, detection at 254 nm.
Quantities of product and educt were calculated from the integrated peak areas.
The measurements of the product yield and the apparent tumover rates for aminolysis (kcat,AL^app) and hydrolysis (kcat,HL^app) were performed by a model transamidation reaction with the following conditions: 250 μM Bz-[…]-OH (acyl donor), 500 μM H-RHAK-OH (acyl acceptor), 5-10 μM trypsin variant, 100 mM HEPES/NaOH pH 7.8, 0.1 mM ZnCl2, 100 mM NaCl, 10 mM CaCl2, T=30° C. KM values for the acyl acceptor were determined by the measurements of apparent turnover rates for aminolysis at constant acyl donor concentration and varying acyl acceptor concentrations.

H-RAHAK(DNP)-OH = target: T2, H-RAHAK(DNP)-OH

Row | Molecule | KM, acyl acceptor (µM); transamidation with Bz-AAYRHAAG-OH as acyl donor, 0.1 mM ZnCl2 (H-RHAK-OH) [µM] | product formation [1] | enzyme kinetic analyses (worded result) (H-RHAK-OH) | product yield (%) [2] [%] | kcat, AL^app (mkat/mol) [2] [mkat/mol] | kcat, AL^app/kcat, HL^app [2] | kcat, HL^app (mkat/mol) [2] [mkat/mol] | affinity for the nucleophilic substrate compared to Trypsiligase I [3] | kcat, HL^app (mkat/mol) [3] [mkat/mol] | kcat,AL^app, apparent turnover rate for aminolysis (head is formula image MATH:00001) [3] | product yield (%) [3] [%] | kcat, AL^app/kcat, HL^app [3] | Km [3] [µM] | increase for the ratio of aminolysis to hydrolysis activity (factor) ([3]; versus Trypsiligase I) | aminolysis activity lowered by factor ([3]; versus Trypsiligase I) | KM, acyl acceptor (µM); zinc ions (100 µM): no; transamidation with 250 µM Bz-PGGYRAHAG-OH as acyl donor (H-RAHAK(DNP)-OH) [µM] | fold improvement of KM of the nucleophilic peptide against Trypsiligase II in the absence of zinc ions (H-RAHAK(DNP)-OH) | fold improvement of KM of the nucleophilic peptide against Trypsiligase II in the presence of zinc ions (H-RAHAK(DNP)-OH)
1 | Trypsiligase I (trypsin variant K60E/N143H/E151H/D189K) (protein) IVGGYTCQENSVPYQVSLNSGYHFCGGSLINDQWVVSAAHCYESRIQVRLGEHNINVLEGNEQFVNAAKIIKHPNFDRKTLNNDIMLIKLSSPVKLNARVATVALPSSCAPAGTQCLISGWGHTLSSGVNHPDLLQCLDAPLLPQADCEASYPGKITDNMVCVGFLEGGKKSCQGDSGGPVVCNGELQGIVSWGYGCALPDNPGVYTKVCNYVDWIQDTIAAN | 222 |  |  |  |  |  |  |  |  |  |  |  |  |  |  |  |  | 
2 | wild-type trypsin: mature anionic rat trypsin II from Rattus norvegicus, SEQ ID NO: 1 (protein, Rat anionic trypsin II) IVGGYTCQENSVPYQVSLNSGYHFCGGSLINDQWVVSAAHCYKSRIQVRLGEHNINVLEGNEQFVNAAKIIKHPNFDRKTLNNDIMLIKLSSPVKLNARVATVALPSSCAPAGTQCLISGWGNTLSSGVNEPDLLQCLDAPLLPQADCEASYPGKITDNMVCVGFLEGGKDSCQGDSGGPVVCNGELQGIVSWGYGCALPDNPGVYTKVCNYVDWIQDTIAAN |  | Nearly no product formation |  |  |  |  |  |  |  |  |  |  |  |  |  |  |  | 
3 | Trypsiligase I variant 2G10 (protein) IVGGYTCQENSVPYQVSLNSGYPFCGGSLINDQWVVSSAHCYESRIQVRLGEHNINVLEGNEQFVNAAKIIKHPNFDRDTFNNDIMLIKLSSPVKLNARVATVALPSSCAPAGTQCLISGWGHTLSSGVNHPDLLQCLDAPLLPQADCEASYPGKITDNMVCVGFLEGGKKSCEGDSGGPVVCNGELQGIVSWGYGCALPDNPGVYTKVCNYVDWIQDTIAAN | 23 |  | shows a strongly increased affinity for the nucleophilic RH substrate compared to the initial enzyme Trypsiligase I | 39.6 | 16.39 | 3.3 | 5.03 | strongly increased affinity for the nucleophilic RH substrate | 2.5 | 65.1 | 59.3 | 26.0 | 23 | 6 |  |  |  | 
4 | Trypsiligase I variant 1C11 (protein) IVGGYTCQENSVPYQVSLNSGYHFCGGSLINDQWVVSAAHCYESRIQVRLGEHNINVLEGNEQFVNAAKIIKHPNFDVKTFNNDIMLIKLSSPVKLNARVATVALPSSCAPAGTQCLISGWGHTLSSGVNHPDLLQCLDAPLLPQADCEASYPGKITDNMVCVGFLEGGKKSCQGDSGGPVVCNGELQGIVGWGYSCGLPDNPGVYTKVCNYVDWIQDTIAAN | > 5000 |  | An improved affinity for the nucleophile could not be shown for this variant. | 53.9 | 6.24 | 6.4 | 0.97 | An improved affinity for the nucleophile could not be shown | 0.3 | 16.0 | 60.9 | 57.0 | > 5000 | 13 | 3 |  |  | 
5 | Trypsiligase II variant A2C8 (protein) IVGGYTCQENSVPYQVSLNSGHFFCGGSLINDQWVVSAAHCHESRIQVRLGEHNINVLEGNEQFVNAAKIIKHPNFDEDTFNNDIMLIKLSSPVKLNARVATVALPSSCAPAGTQCLISGWGETLSSGVNYPDLLQCLDAPLLPQADCEASYPGKITDNMVCVGFLEGGKKVCAGDSGGPVVCNGELQGIVGWGYQCTLPDNPGVYTKVCNYVDWIQDTIAAN |  |  |  |  |  |  |  |  |  |  |  |  |  |  |  | 17.6 | by a factor of 8 and 92 in the presence or absence of zinc ions, respectively | by a factor of 8 and 92 in the presence or absence of zinc ions, respectively

Reference: patent US20220235344A1, “TRYPSIN VARIANTS WITH IMPROVED ENZYMATIC PROPERTIES” (BIOPHARMA TRANSLATIONSINSTITUT DESSAU FORSCHUNGS GMBH, priority 2018, published 2022)
